Assay results published in patent publication US20100021456A1.

Legend:
[1] = target: IL-17RA receptor (IL-17 receptor A) on RA synoviocytes (human) (UniProt Q96F46); assay: cell-based or functional assay
[2] = target: IL-17RC receptor (IL-17 receptor C) on RA synoviocytes (human) (UniProt Q8NAC3); assay: cell-based or functional assay
Chain of UniProt Q8NAC3 (Q8NAC3 21-791): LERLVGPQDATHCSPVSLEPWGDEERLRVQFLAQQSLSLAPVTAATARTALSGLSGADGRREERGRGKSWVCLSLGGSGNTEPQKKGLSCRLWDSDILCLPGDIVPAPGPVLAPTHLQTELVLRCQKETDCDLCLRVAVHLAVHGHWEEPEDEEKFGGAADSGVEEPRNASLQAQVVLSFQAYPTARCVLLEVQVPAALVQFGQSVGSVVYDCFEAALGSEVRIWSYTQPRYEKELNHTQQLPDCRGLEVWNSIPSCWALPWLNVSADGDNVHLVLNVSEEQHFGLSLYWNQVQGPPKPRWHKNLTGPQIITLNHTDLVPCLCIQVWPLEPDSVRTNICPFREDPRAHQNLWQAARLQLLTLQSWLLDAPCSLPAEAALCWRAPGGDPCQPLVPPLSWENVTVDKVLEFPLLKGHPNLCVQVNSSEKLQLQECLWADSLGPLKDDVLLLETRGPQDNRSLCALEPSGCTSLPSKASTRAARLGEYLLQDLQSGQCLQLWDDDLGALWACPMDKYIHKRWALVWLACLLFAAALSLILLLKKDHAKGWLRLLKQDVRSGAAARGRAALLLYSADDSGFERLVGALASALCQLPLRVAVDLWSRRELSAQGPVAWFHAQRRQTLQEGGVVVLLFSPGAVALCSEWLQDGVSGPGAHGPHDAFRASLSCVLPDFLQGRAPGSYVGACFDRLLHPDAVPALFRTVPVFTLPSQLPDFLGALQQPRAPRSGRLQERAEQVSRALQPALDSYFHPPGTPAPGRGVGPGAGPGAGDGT

reduction in secreted IL-6 induced by IL-17A in the presence of TNF-α, after simultaneous IL-17RA and IL-17RC iRNAs [1]: 20% | reduction in secreted IL-6 induced by IL-17A in the presence of TNF-α, after simultaneous IL-17RA and IL-17RC iRNAs [2]: 20%
Substance: recombinant human IL-17A (R&D Systems) (from UniProt Q16552 24-155) (ligand)
